Assays:
[1] = biological target: cynomolgus macaque FcRn (cynomolgus macaque) (UniProt Q8SPV9); assay: SPR
[2] = biological target: human neonatal Fc receptor (human) (UniProt P55899); assay: SPR
Sequence of UniProt P55899 (P55899 24-365): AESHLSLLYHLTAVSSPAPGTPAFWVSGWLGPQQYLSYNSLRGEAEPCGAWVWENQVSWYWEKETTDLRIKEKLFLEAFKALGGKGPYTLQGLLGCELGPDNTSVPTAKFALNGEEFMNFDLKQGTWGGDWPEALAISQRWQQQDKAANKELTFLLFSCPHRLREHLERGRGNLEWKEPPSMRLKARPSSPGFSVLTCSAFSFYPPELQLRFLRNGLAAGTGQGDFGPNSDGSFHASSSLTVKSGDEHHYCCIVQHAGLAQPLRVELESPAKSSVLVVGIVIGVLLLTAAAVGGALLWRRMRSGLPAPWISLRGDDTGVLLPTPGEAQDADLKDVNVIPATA

Sequence of UniProt Q8SPV9 (Q8SPV9 24-365): as the sequence (P55899 24-365) above, with N39D, E44Q, G99S, S189G, S190N, L217M, S269T, V319S, L332S, V335I counted along it

adintrevimab (antibody)
fold higher affinity relative to ADG2 [1]: 5 fold
fold higher affinity relative to ADG2 [2]: 6 fold
